Molecular target: MBP-SlMYC2 (Solanum lycopersicum, UniProt A0A3Q7HRZ6 1-689)
Test: EMSA; LightShift Chemiluminescent EMSA kit (Thermo Scientific), acrylamide gel; buffer, salt, pH and temperature not given
Details: protein: recombinant; tags: N-terminal MBP (pMAL-c2); chain copies: 2; label: biotin (3' end per Methods); blunt

MBP-SlMYC2, sequence (A0A3Q7HRZ6 whole entry): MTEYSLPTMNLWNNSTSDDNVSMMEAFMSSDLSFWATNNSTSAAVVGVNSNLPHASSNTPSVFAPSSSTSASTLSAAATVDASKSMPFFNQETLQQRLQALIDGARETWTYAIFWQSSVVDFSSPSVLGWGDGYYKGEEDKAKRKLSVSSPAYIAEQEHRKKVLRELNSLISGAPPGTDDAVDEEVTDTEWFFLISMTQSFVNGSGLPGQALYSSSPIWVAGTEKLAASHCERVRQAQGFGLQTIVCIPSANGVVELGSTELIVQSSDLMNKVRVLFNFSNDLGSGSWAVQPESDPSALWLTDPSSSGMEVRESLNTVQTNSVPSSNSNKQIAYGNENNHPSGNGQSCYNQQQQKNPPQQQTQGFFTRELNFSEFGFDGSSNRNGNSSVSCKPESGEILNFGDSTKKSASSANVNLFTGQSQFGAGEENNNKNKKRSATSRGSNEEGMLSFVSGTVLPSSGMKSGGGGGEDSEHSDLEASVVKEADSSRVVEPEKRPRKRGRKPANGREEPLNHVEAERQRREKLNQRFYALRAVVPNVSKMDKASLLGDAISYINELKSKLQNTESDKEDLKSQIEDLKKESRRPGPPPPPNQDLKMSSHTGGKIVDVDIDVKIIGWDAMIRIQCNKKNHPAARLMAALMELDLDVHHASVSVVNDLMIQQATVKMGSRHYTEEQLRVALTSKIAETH

B1: TomLoxDpro probe-369 (dsDNA)
DNA 1: TCGGTTTGACTAAATTCCACCATGTGTAAAGCTTGCACTAAAATGAAACC
DNA 2: GGTTTCATTTTAGTGCAAGCTTTACACATGGTGGAATTTAGTCAAACCGA
  binding result: binds
